This note sets out measurements from patent US20070167369A1 (published 2007).

The target of this experiment is HUVECs. Nature of the experiment: cell binding (Scatchard, Abs. 490 nm).

B1: Regenin (other)
chain: MGTVMDVLKGDNRFSMLVAAIQSAGLTETLNREGVYTVFAPTNEAFRALPPRERSRLLGDAKELANILKYHIGDEILVSGGIGALVRLKSLQGDKLEVSLKNNVVSVNKEPVAEPDIMATNGVVHVITNVLMGTVMDVLKGDNRFSMLVAAIQSAGLTETLNREGVYTVFAPTNEAFRALPPRERSRLLGDAKELANILKYHIGDEILVSGGIGALVRLKSLQGDKLEVSLKNNVVSVNKEPVAEPDIMATNGVVHVITNVLMGTVMDVLKGDNRFSMLVAAIQSAGLTETLNREGVYTVFAPTNEAFRALPPRERSRLLGDAKELANILKYHIGDEILVSGGIGALVRLKSLQGDKLEVSLKNNVVSVNKEPVAEPDIMATNGVVHVITNVLMGTVMDVLKGDNRFSMLVAAIQSAGLTETLNREGVYTVFAPTNEAFRALPPRERSRLLGDAKELANILKYHIGDEILVSGGIGALVRLKSLQGDKLEVSLKNNVVSVNKEPVAEPDIMATNGVVHVITNVL
Regarding B1, the Kd – broadly, the concentration at which binding is half-saturated – was found to be 1 µM. This lies in the single-digit micromolar range.
